Reference: patent US20220267415A1 (University of Texas, published 2022)
Values joined by “and” are separate entries in the source; they are usually repeats but may differ in a detail not shown here. Equal values may be shown once. Read-outs that look alike come from different tables or passages of the source.

Key:
[1] = target: T1, recombinant SARS-CoV-2 Receptor Binding Domain (RBD) with a his tag (ATUM, Cat. 65639.1.a) (SARS-CoV-2, UniProt P0DTC2 319-541)
[2] = target: T2, recombinant Spike protein (Sino Biologicals Cat #40589-V08B1) (SARS-CoV-2, UniProt P0DTC2 13-1213); assay: BLI (Octet), His-tagged S on Ni-NTA sensor, avidity
[3] = target: T3, SARS-CoV-2 spike protein, wild type, on live virus (SARS-CoV-2-mNG / USA-WA1/2020) (SARS-CoV-2, UniProt P0DTC2 13-1273); assay: cell-based or functional assay
[4] = target: T3, SARS-CoV-2 spike protein, wild type, on …; assay: cell-based or functional assay; remark: listed apart in the source
[5] = target: T2, recombinant Spike protein (Sino …); assay: BLI (Octet), avidity to spike
[6] = target: T2, recombinant Spike protein (Sino …); assay: ELISA on coated recombinant spike
[7] = target: T1, recombinant SARS-CoV-2 Receptor Binding …; assay: ELISA on coated RBD-his
[8] = target: T1, recombinant SARS-CoV-2 Receptor Binding …; remark: listed apart in the source

Binder	EC50 (read off the curve) [1] [nM]	Kd [2] [nM]	koff [2] [s⁻¹]	kon [2] [M⁻¹ s⁻¹]	EC50 (neutralization of live SARS-CoV-2-mNG) [3]	Fold change of neutralization EC50 in nM (IgM-14 against IgG-14) [3] [fold]	Fold change of neutralization EC50 in µg/ml (IgM-14 against IgG-14) [3] [fold]	Neutralization EC50 [4] [µg/mL]	fold change of KD (IgM-14 against IgG-14) [5] [fold]	fold change of Kdis (IgM-14 against IgG-14) [5] [fold]	fold change of Kon (IgM-14 against IgG-14) [5] [fold]	EC50 [6] [nM]	fold change of ELISA EC50 (IgM-14 against IgG-14) [6] [fold]	EC50 [7] [nM]	EC50 (read off the curve) [8] [nM]
anti-SARS-CoV2-14 IgM (lambda-VL-kappa-CL hybrid light chain) (antibody) heavy: EVQLQQSGPGLVKPSQTLSLTCAISGDSVSSNSAAWNWIRQSPSRGLEWLGRTYYRSKWYNDYAVSVKSRITINPDTSKNQFSLQLNSVTPEDTAVYYCAREEQQLVHDYYYYGMDVWGQGTMVTVSSGSASAPTLFPLVSCENSPSDTSSVAVGCLAQDFLPDSITFSWKYKNNSDISSTRGFPSVLRGGKYAATSQVLLPSKDVMQGTDEHVVCKVQHPNGNKEKNVPLPVIAELPPKVSVFVPPRDGFFGNPRKSKLICQATGFSPRQIQVSWLREGKQVGSGVTTDQVQAEAKESGPTTYKVTSTLTIKESDWLSQSMFTCRVDHRGLTFQQNASSMCVPDQDTAIRVFAIPPSFASIFLTKSTKLTCLVTDLTTYDSVTISWTRQNGEAVKTHTNISESHPNATFSAVGEASICEDDWNSGERFTCTVTHTDLPSPLKQTISRPKGVALHRPDVYLLPPAREQLNLRESATITCLVTGFSPADVFVQWMQRGQPLSPEKYVTSAPMPEPQAPGRYFAHSILTVSEEEWNTGETYTCVVAHEALPNRVTERTVDKSTGKPTLYNVSLVMSDTAGTCY VL: QAVVTQPASVSGSPGQSITISCTGTSSDIGAYNYISWYQQHPGKAPKLIIYEVSNRPSGISYRFSGSKSGNTASLTISGLQAEDEANYYCSSYAGSISFGGGTKVTVL not shown	~0.7	0.102	0.00034	3.35e+06	0.01 µg/ml and 0.011 nM	236	39	0.015	13.6	0.26	3.59	0.046	135	0.7	
anti-SARS-CoV2-09 IgM (antibody) VH: QVQLHQWGAGLLKPSETLSRTCAVYGGSFSGYYWTWIRQAPGKGLEWIGEINHGGSTRYNPSLESRVSISVDTSKKQFSLELRSVTAADTAIYYCARGYDTNWYGDGYNWFDPWDRGTLVTVSS VL: QSALTQDPSVSVALGQTVRITCQGDSLRGSFASWYRQKPGQAPVLVIFGINNRPSGVPDRFSGSSSGNTASLTITGAQAEDEADYYCNSRESNSNRILFGGGTKVTVL not shown														0.3	~0.4
